Experimental data taken from article PMC3642234 (Biochimica et biophysica acta, 2013).

T1: recombinant human pancreatic triglyceride lipase (human, UniProt P16233 17-465)
T1 sequence: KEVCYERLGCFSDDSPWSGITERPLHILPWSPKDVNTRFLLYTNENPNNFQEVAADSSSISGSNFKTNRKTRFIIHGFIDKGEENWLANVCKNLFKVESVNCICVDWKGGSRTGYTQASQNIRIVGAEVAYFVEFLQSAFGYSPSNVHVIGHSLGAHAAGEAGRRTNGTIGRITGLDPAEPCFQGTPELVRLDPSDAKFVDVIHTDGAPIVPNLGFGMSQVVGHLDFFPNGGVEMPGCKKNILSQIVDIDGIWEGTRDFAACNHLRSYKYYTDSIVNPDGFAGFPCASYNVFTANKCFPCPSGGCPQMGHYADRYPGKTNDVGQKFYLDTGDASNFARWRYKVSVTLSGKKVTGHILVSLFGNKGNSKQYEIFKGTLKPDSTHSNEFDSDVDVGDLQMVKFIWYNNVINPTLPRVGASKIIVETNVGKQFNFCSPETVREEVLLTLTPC


Key:
[1] = target: recombinant human pancreatic triglyceride lipase (human) (UniProt P16233); assay: co-sedimentation
[2] = target: T1, recombinant human pancreatic …; assay: co-sedimentation

Molecule | apparent Kd (colipase at half-maximal absorption of PTL to tributyrin emulsion) [1] [nM] | apparent Kd (colipase at half-maximal absorption of PTL to tributyrin emulsion) [2] [nM]
F84A human colipase (natural protein) | 108 | 
Y55A human colipase (natural protein) | 78.6 | 
wild-type human colipase (natural protein, UniProt P04118 18-112, looked up) APGPRGIIINLENGELCMNSAQCKSNCCQHSSALGLARCTSMASENSECSVKTLYGIYYKCPCERGLTCEGDKTIVGSITNTNFGICHDAGRSKQ |  | 22.8

Results, then the molecule that gave them:

apparent Kd (colipase at half-maximal absorption of PTL to tributyrin emulsion) [1] [nM] | apparent Kd (colipase at half-maximal absorption of PTL to tributyrin emulsion) [2] [nM] | Molecule
36 |  | I79A human colipase (natural protein)
25.7 |  | L16A human colipase (natural protein)
